{"source": "paper PMC10384427", "target": "SARS-CoV-2 N protein K65R, not SUMOylated (SARS-CoV-2) (UniProt P0DTC9)", "assay": "FRET or BRET", "data": [{"substance": "SARS-CoV-2 N protein K65R, not SUMOylated (from UniProt P0DTC9 1-419) (natural protein)", "values": [{"measurement": "Kd", "value": 1380, "unit": "nM"}]}]}
